From the supplement of paper PMC9732359
± gives the uncertainty stated by the source.

Experiment: protein stability index of a GFP-peptide fusion (yeast GPS) (PSI 1-4); higher = more stable; sorted into four equal gates, so the index is relative within each strain
In short: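 Tiled 17-residue peptides from yeast proteins were fused downstream of GFP on a plasmid that also expresses Cherry, and the pooled library was carried in yeast. Mid-log cultures grown in leucine-free medium were sorted into four equal gates by GFP/Cherry fluorescence ratio. Plasmids from each gate were PCR-amplified and Illumina-sequenced, and reads were assigned to strains by barcodes. Each peptide's protein stability index is the sum, over gates, of the gate's read frequency multiplied by its gate number.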

Sequence	protein stability index (doa10∆)	protein stability index (pdr5∆)	protein stability index (san1∆)	protein stability index (ubr1∆)
SLRTPIAPKITPKVVRS [SEC65]	3.16 ± 0.093	3.05 ± 0.063	2.87 ± 0.1	3.17 ± 0.059
KETIARVTGGMKVKADR [RPS14A]	3.29 ± 0.11	3.13 ± 0.12	3.31 ± 0.062	3.27 ± 0.073
SNGGGKVKPIRGFCQRL [RPO31]	2.94 ± 0.13	3.12 ± 0.11	3.09 ± 0.097	3.25 ± 0.065
PLAKIYLEENKSDSQYR [MED1]	3.15 ± 0.086	3.18 ± 0.065	3.15 ± 0.059	3.16 ± 0.06
ASEVATHSKLFADKKRD [PRP8]	2.51 ± 0.063	2.69 ± 0.073	2.31 ± 0.079	2.56 ± 0.068
MLLVDIIPSRMGEAQTG [REC8]	1.7 ± 0.063	1.87 ± 0.073	2.02 ± 0.09	2.17 ± 0.061
FILTIATAFLGYCCVYG [COB]	1.66 ± 0.098	1.27 ± 0.11	1.22 ± 0.22	1.36 ± 0.072
NLEPLIAKLVAVLNVSP [NUT1]	1.47 ± 0.064	1.38 ± 0.066	1.69 ± 0.14	1.43 ± 0.057
LSALNSEISSLKGKINN [SMC1]	3.03 ± 0.09	3 ± 0.092	3.08 ± 0.064	3.06 ± 0.075
QSNYGIYSSDAQGDPNL [NUT1]	3.03 ± 0.077	2.92 ± 0.065	2.51 ± 0.056	3.06 ± 0.063
GKPTVNKKPKNKKKGRK [SRP72]	3.42 ± 0.084	3.29 ± 0.1	2.93 ± 0.1	3.24 ± 0.092
ASSSAKLIEKKSAYANT [SMC2]	2.82 ± 0.1	2.55 ± 0.055	2.73 ± 0.079	2.79 ± 0.042
SAVVGPNGSGKSNVIDS [SMC4]	3.13 ± 0.049	2.87 ± 0.043	3.06 ± 0.06	2.84 ± 0.033
INAEEIVDFTLPPPPPP [PRP8]	2.94 ± 0.07	3.06 ± 0.053	3.01 ± 0.047	3.04 ± 0.045
LKKKVVDPFTRKEWFDI [RPS1B]	2.97 ± 0.075	3.18 ± 0.071	3.18 ± 0.045	2.88 ± 0.049
FMNDAAADVSAVDAKQL [YML103C/NUP188]	2.52 ± 0.095	2.54 ± 0.099	3.06 ± 0.091	2.21 ± 0.081
REDIDDPLAKVNVLLQS [BRR2]	2.91 ± 0.12	3.04 ± 0.088	3.19 ± 0.092	2.96 ± 0.11
SVLNPFLLRRVKADVEK [ISW2]	1.15 ± 0.14	1.09 ± 0.068	1.18 ± 0.15	1.31 ± 0.12
AAFEKRYRVDLLNTDHT [RPO21]	3.11 ± 0.076	3 ± 0.059	2.89 ± 0.058	2.88 ± 0.077
KFKLLNGLAIRRAAYGV [RPS3]	2 ± 0.046	2.15 ± 0.047	1.88 ± 0.062	1.86 ± 0.048

Sequence	protein stability index (doa10∆)	protein stability index (pdr5∆)	protein stability index (san1∆)	protein stability index (ubr1∆)
HPQDFGNPGRIRVLFKE [SEC65]	2.91 ± 0.077	2.94 ± 0.11	3.13 ± 0.065	3.11 ± 0.061
MTLLTDSLRKLYVDSES [MTW1]	1.45 ± 0.078	1.79 ± 0.11	1.65 ± 0.11	1.59 ± 0.077
KYSAITSSIFQESFNSV [NUT1]	2.22 ± 0.053	2.37 ± 0.046	2.7 ± 0.047	2.48 ± 0.037
QDREITNWARTTFRNEY [MED8]	2.49 ± 0.09	2.07 ± 0.083	2.47 ± 0.092	2.51 ± 0.096
PQTPLVEPVTERTKLQE [SNU114]	3.29 ± 0.15	3.07 ± 0.18	3.08 ± 0.1	3.31 ± 0.13
ISAEDRADTDLAMNDDD [SNF2]	3.44 ± 0.23	3.45 ± 0.14	3.35 ± 0.069	3.32 ± 0.085
HSISEAENMLEELRGQQ [SMC4]	3.27 ± 0.094	2.52 ± 0.18	3.35 ± 0.068	3.2 ± 0.079
DQSIASGNTNGAGSAFG [YOR098C/NUP1]	3.26 ± 0.072	2.49 ± 0.06	2.44 ± 0.079	2.49 ± 0.078
PDGLGEVGMKVQSGQIY [RET1]	3.27 ± 0.14	3.15 ± 0.12	2.91 ± 0.094	3.21 ± 0.25
FFLSIYFFYASRPEYSC [YJL039C/NUP192]	1.41 ± 0.056	1.35 ± 0.13	1.19 ± 0.11	1.38 ± 0.057
NVTKSSVGVIINKMVGN [RPL21A]	2.17 ± 0.099	2.98 ± 0.11	2.46 ± 0.19	2.91 ± 0.13
QELCYPDENHDNTSHDE [BRN1]	3.23 ± 0.073	3.27 ± 0.061	2.98 ± 0.061	3.35 ± 0.056
DVNALKFNNTQRESQIG [SNF12]	2.31 ± 0.092	2.75 ± 0.067	2.68 ± 0.077	3.12 ± 0.063
MVAATKRRKTHIHKHVK [RET1]	2.96 ± 0.17	3.08 ± 0.15	2.31 ± 0.2	3.09 ± 0.1
FELIELVTPKSFLFDVL [NUT1]	1.92 ± 0.25		1.08 ± 0.16	1.06 ± 0.12
EFENKFQNSYKPALKVS [YMR129W/POM152]		3.11 ± 0.22	3.04 ± 0.2	
LDPSLRAPIYHSKFRSS [YML031W/NDC1]	2.02 ± 0.093	2.34 ± 0.064	1.71 ± 0.25	2.35 ± 0.072
IQQHARYDCSFCGKKTV [RPL43A]	2.71 ± 0.23	2.94 ± 0.1	2.81 ± 0.065	3.06 ± 0.066
TLSFNFSQKANKTKAVD [YOR098C/NUP1]	2.03 ± 0.085	1.55 ± 0.059	1.84 ± 0.1	1.71 ± 0.057
